According to PMC5372524, “Structural Basis of Native CXCL7 Monomer Binding to CXCR2 Receptor N-Domain and Glycosaminoglycan Heparin” (International Journal of Molecular Sciences, 2017):
Values joined by “and” are separate entries in the source; they are usually repeats but may differ in a detail not shown here. Equal values may be shown once.

Target: the molecule itself
Experiment: relative peak intensities in 2D HSQC NMR spectra; monomer/dimer/tetramer levels of CXCL7 as a function of buffer, temperature, pH and concentration (Table S1)

B1: CXCL7 (NAP-2, neutrophil-activating peptide 2), wild type (natural protein, UniProt P02775 59-128, looked up)
chain: AELRCMCIKTTSGIHPKNIQSLEVIGKGTHCNQVEVIATLKDGRKICLDPDAPRIKKIVQKKLAGDESAD
notes: Chemokine CXCL7, also known as NAP-2; 15N-labelled for the HSQC titrations; Exists as monomer, dimer and tetramer depending on pH and concentration; also called WT CXCL7; native CXCL7 monomer; source: Escherichia coli (LB or 15N/13C enriched minimal medium), purified (nickel column, reverse phase HPLC), lyophilized
stoichiometry N: 4 and 2
